According to patent US20050026839A1 (GENERAL HOSPITAL, published 2005):
Read-outs that look alike come from different tables or passages of the source. Square brackets hold non-standard residues; d marks the D form. Ends that are not written are not given here. hArg = N=C(N)NCCCC[C@H](N)C(=O)O; Nle = CCCC[C@H](N)C(=O)O; Aib = CC(C)(N)C(=O)O

How the values were obtained:
[1] = molecular target: T1, wild-type human PTH/PTHrP receptor (hP1R-WT) (human, UniProt Q03431 27-593); assay: competition binding, 125I-[M]PTH(1-21) tracer, HKRK-B28 cells, 4 h at 4 C
T1 construct: whole, on cells; HKRK-B28 cells express ~280,000 receptors per cell; also called PTH-1 receptor; PTH-1R
T1 sequence (looked up): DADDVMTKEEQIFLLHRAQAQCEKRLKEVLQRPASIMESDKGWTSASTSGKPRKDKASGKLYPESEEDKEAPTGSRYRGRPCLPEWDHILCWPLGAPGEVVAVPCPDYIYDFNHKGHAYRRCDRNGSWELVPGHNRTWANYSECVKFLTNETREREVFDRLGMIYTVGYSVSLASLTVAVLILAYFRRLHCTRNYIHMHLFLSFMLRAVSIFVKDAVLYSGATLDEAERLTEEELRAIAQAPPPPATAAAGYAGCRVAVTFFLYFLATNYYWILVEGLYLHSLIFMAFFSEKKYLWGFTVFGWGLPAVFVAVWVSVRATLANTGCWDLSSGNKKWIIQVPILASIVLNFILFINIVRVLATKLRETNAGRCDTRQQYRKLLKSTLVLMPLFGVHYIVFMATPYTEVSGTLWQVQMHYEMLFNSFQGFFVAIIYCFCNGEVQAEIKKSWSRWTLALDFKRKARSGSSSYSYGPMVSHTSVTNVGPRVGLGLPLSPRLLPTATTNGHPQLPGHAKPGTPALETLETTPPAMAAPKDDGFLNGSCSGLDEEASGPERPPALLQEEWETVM
Experimental: (§1) Competition Binding. Binding reactions were performed with HKRK-B28 cells or in COS-7 cells in 24-well plates. The cells were rinsed with 0.5 mL of binding buffer, and then treated successively with 100 μL binding buffer, 100 μL of binding buffer containing various amounts of unlabeled competitor ligand, and 100 μL of binding buffer containing ca. 100,000 cpm of ¹²⁵I-[M]PTH(1-21) or ¹²⁵I-[Aib^{1,3},M]PTH(1-21)} (ca. 26 fmol; final volume=300 μL). Incubations were 4 to 6 h at 4° C., at which time near equilibrium conditions were attained. Cells were then placed on ice, the binding medium was removed, and the monolayer was rinsed three times with 0.5 mL of cold binding buffer. The cells were subsequently lysed with 0.5 mL […] NaOH and counted for radioactivity. For each tracer and in each experiment, the non-specific binding was determined as the radioactivity that bound in the presence of the same unlabeled peptide at a concentration of 1 μM, and was ˜1% of total radioactivity added for each tracer. The maximum specific binding (B₀) was the total radioactivity bound in the absence of competing ligand, corrected for nonspecific binding, and for each tracer, ranged from 8% to 20% of the total radioactivity added. Nonlinear regression was used to calculate binding IC₅₀ values (see below). Scatchard transformations of homologous competition binding data derived from studies with 26 fmol of ¹²⁵I-[Aib^{1,3},M]PTH(1-21) were employed for estimations of apparent equilibrium dissociation constant (kDapps) and total number of ligand binding sites (Bₘₐₓ), assuming a single class of binding sites and equal affinities of the iodinated and non iodinated ligand.
Peptides PTH(1-34) ([Nle^{8,21}, Tyr³⁴]PTH(1-34)amide), [M]PTH(1-14) (M = Ala^{3,12}, Gln¹⁰, Har¹¹, Trp¹⁴), and [M]PTH(1-14 analogs, or C-terminally truncated derivatives thereof, containing α-aminoisobutyric acid (Aib) substitutions at the indicated positions were functionally evaluated in HKRK-B28 cells. “M” in [Aib^{1,3}, M]PTH(1-21) = Nle⁸, Gln¹⁰, Har¹¹, Ala¹², Trp¹⁴, Arg¹⁹ and Tyr²¹. The basal cAMP values (not subtracted) were 4.0 ± 0.1 pmole/well (n = 10). Peptides were based on the rat PTH sequence and were carboxy-amidated. Competition binding analyses were performed with ¹²⁵I-[M]PTH(1-21 )amide (Ala^{1,3}) as tracer for 4 h at 4° C. Data are means (±S.E.M.) Of the number of experiments indiated (n).

[2] = molecular target: T1, wild-type human PTH/PTHrP receptor …; assay: cell-based or functional assay
[3] = molecular target: T2, truncated human P1R deleted for residues (24-181) (hP1R-delNt) (human, UniProt Q03431 182-593); assay: cell-based or functional assay
T2 sequence (looked up): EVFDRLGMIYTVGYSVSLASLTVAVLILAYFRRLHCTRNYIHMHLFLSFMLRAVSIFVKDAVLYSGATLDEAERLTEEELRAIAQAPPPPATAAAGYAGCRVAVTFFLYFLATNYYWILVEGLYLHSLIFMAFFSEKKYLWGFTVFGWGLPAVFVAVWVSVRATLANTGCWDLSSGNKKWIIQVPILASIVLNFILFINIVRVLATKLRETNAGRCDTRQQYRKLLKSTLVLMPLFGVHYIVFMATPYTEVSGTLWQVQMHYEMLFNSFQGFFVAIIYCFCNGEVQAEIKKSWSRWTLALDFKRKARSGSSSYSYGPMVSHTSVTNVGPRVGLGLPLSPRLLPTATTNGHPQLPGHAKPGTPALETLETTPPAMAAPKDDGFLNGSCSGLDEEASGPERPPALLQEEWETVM

[4] = molecular target: T1, wild-type human PTH/PTHrP receptor …; assay: competition binding, 125I-[Aib1,3,M]PTH(1-21) tracer, COS-7 cells expressing hP1R-WT
Experimental: as §1

[5] = molecular target: T1, wild-type human PTH/PTHrP receptor …; assay: cell-based or functional assay; remark: listed apart in the source
[6] = molecular target: T1, wild-type human PTH/PTHrP receptor …; assay: cell-based or functional assay; remark: listed apart in the source
[7] = molecular target: T2, truncated human P1R deleted for …; assay: competition binding vs 125I-[Aib1,3,M]PTH(1-21), COS-7 cells with hP1R-delNt
Experimental: (§2) Stock solutions of EGTA/trypsin and antibiotics were from GIBCO; fetal bovine serum was from Hyclone Laboratories (Logan, Utah). […] All cells, in 24-well plates, were treated with fresh media and shifted to 33° C. for 12 to 24 h prior to assay.
as §1

[8] = molecular target: T1, wild-type human PTH/PTHrP receptor …; assay: radioligand binding to HKRK-B28 cells
[9] = molecular target: T2, truncated human P1R deleted for …; assay: competition binding, 125I-[Aib1,3,M]PTH(1-21) tracer, COS-7 cells expressing hP1R-delNt
Experimental: as §2, §1

[10] = molecular target: T1, wild-type human PTH/PTHrP receptor …; assay: competition binding vs 125I-[Aib1,3,M]PTH(1-21), COS-7 cells with hP1R-WT
[11] = molecular target: T1, wild-type human PTH/PTHrP receptor …; assay: cell-based or functional assay; remark: listed apart in the source
[12] = molecular target: T2, truncated human P1R deleted for …; assay: cell-based or functional assay; remark: listed apart in the source
[13] = molecular target: T2, truncated human P1R deleted for …; assay: radioligand binding, COS-7 cells with P1R-delNt
[14] = molecular target: wild-type human PTH/PTHrP receptor (hP1R-WT) (human) (UniProt Q03431); assay: cell-based or functional assay
[15] = molecular target: wild-type human PTH/PTHrP receptor (hP1R-WT) (human) (UniProt Q03431); assay: competition binding, 125I-[M]PTH(1-21) tracer, HKRK-B28 cells
[16] = molecular target: T2, truncated human P1R deleted for …; assay: cell-based or functional assay; remark: listed apart in the source

B1: [Nle^8,21,Tyr^34]PTH(1-34)amide (rat sequence) (peptide)
peptide: AVSEIQLXHNLGKHLASVERXQWLRKKLQDVHNY
modifications: Nle (norleucine) at 8 and 21; C-terminal amide
notes: also called 92 PTH(1-34); 92.5 PTH(1-34)
For B1, the IC50 [1] was 18 nM, the “PLC EC50” value [2] was 17 nM and the “PLC EMAX(obs.)” value [2] was 4.2 foldxbasal. For the same binder, the “cAMP EC50” value [2] was 1.4 nM, the “cAMP EMax(obs.)” value [2] was 240 pmole/well and the “cAMP EC50” value [3] was 680 nM. For the same binder, the “cAMP EMax(obs.)” value [3] was 220 pmole/well, the IC50 [4] was 12 nM and the “cAMP EC50 in SaOS-2 cells” value [5] was 0.2 nM. The “cAMP EC50” value [6] was 2.5 nM, the “cAMP EMax(obs.)” value [6] was 280 pmole/well and the binding result [7] was “no binding”.

AVAEIQL[Nle]HQ[hArg]AKWY-NH2 (also: 125I radiolabel, iodinated residue not given here) [^125I-[Ala^3,12Nle^8Gln^10,Har^11,Trp^14,Tyr^15]PTH(1-15)amide]: no binding [8].

B2: [Ala^3,12,Gln^10,Har^11,Trp^14]PTH(1-14)amide (peptide)
peptide: AVAEIQLMHQ[hArg]AKW-NH2
modifications: N-terminus assumed
SMILES: CC[C@H](C)[C@H](NC(=O)[C@H](CCC(=O)O)NC(=O)[C@H](C)NC(=O)[C@@H](NC(=O)[C@H](C)N)C(C)C)C(=O)N[C@@H](CCC(N)=O)C(=O)N[C@@H](CC(C)C)C(=O)N[C@@H](CCSC)C(=O)N[C@@H](Cc1c[nH]cn1)C(=O)N[C@@H](CCC(N)=O)C(=O)N[C@@H](CCCCNC(=N)N)C(=O)N[C@@H](C)C(=O)N[C@@H](CCCCN)C(=O)N[C@@H](Cc1c[nH]c2ccccc12)C(N)=O
notes: X = Har; also called [M]PTH(1-14); 621 [M]PTH(1-14)
B2 was tested, and the IC50 [1] was 13000 nM, the “PLC EC50” value [2] was 4700 nM and the “PLC EMAX(obs.)” value [2] was 3.9 foldxbasal. For the same binder, the “cAMP EC50” value [2] was 49 nM, the “cAMP EMax(obs.)” value [2] was 240 pmole/well and the “cAMP EC50” value [3] was 40 nM. The “cAMP EMax(obs.)” value [3] was 220 pmole/well, the IC50 [4] was 20000 nM and the “cAMP EC50 in SaOS-2 cells” value [5] was 340 nM. For the same binder, the “cAMP EC50” value [6] was 100 nM, the “cAMP EMax(obs.)” value [6] was 270 pmole/well and the IC50 [9] was 17400 nM.

B3: [Aib^1,3,Gln^10]PTH(1-10) (peptide)
peptide: [Aib]V[Aib]EIQLMHQ-NH2
modifications: N-terminus assumed
SMILES: CC[C@H](C)[C@H](NC(=O)[C@H](CCC(=O)O)NC(=O)C(C)(C)NC(=O)[C@@H](NC(=O)C(C)(C)N)C(C)C)C(=O)N[C@@H](CCC(N)=O)C(=O)N[C@@H](CC(C)C)C(=O)N[C@@H](CCSC)C(=O)N[C@@H](Cc1c[nH]cn1)C(=O)N[C@@H](CCC(N)=O)C(N)=O
notes: also called 684 [Aib^1,3, M]PTH (1-10); [Aib^1,3,M]PTH(1-10)
For B3, the binding result [10] was “no binding”, the “cAMP EC50” value [2] was 100000 nM and the “cAMP EMax(obs.)” value [2] was 120 pmole/well. For the same binder, the “cAMP EC50” value [3] was 53000 nM, the “cAMP EMax(obs.)” value [3] was 84 pmole/well and the “cAMP EC50” value [6] was 16000 nM. For the same binder, the “cAMP EMax(obs.)” value [6] was 111 pmole/well and the binding result [7] was “no binding”.

With [Aib]V[Aib]EIQLMHNLGKHLNSMERVEWLRKKLQDVHNY-NH2 [[Aib^1,3,Tyr^34]-hPTH(1-34)] the “cAMP EC50” value [11] was 0.67 nM and the “cAMP EC50” value [12] was 43 nM.

AVAEIQL[Nle]HQ[hArg]AKWLASVRRY-NH2 (also: 125I radioiodinated, residue not given here, Tracer radioligand) [^125I-[M]PTH(1-21)]: no binding [13].

AVSEIQLMHNLGKH-NH2 (also called 521 PTH(1-14)) [native PTH(1-14) (rat sequence, amide)] was tested, and the “cAMP EC50” value [2] was 90000 nM, the “cAMP EMax(obs.)” value [2] was 140 pmole/well and the “cAMP EC50” value [3] was 140000 nM. For the same binder, the “cAMP EMax(obs.)” value [3] was 110 pmole/well and the binding result [7] was “no binding”.

B4: [Aib^5,M]PTH(1-14) (peptide)
peptide: AVAE[Aib]QLMHQ[hArg]AKW-NH2
modifications: N-terminus assumed
SMILES: CSCC[C@H](NC(=O)[C@H](CC(C)C)NC(=O)[C@H](CCC(N)=O)NC(=O)C(C)(C)NC(=O)[C@H](CCC(=O)O)NC(=O)[C@H](C)NC(=O)[C@@H](NC(=O)[C@H](C)N)C(C)C)C(=O)N[C@@H](Cc1c[nH]cn1)C(=O)N[C@@H](CCC(N)=O)C(=O)N[C@@H](CCCCNC(=N)N)C(=O)N[C@@H](C)C(=O)N[C@@H](CCCCN)C(=O)N[C@@H](Cc1c[nH]c2ccccc12)C(N)=O
For B4, the cAMP EC50 [14] was 66000 nM, the cAMP EMax(obs.) [14] was 169 pmole/well and the fold reduction in affinity relative to [M]PTH(1-14) [15] was < 10 fold.

With [Aib]V[Aib]EIQLMHQ[hArg]AKWLNSMRRVEWLRKKLQDVHNY-NH2 [[Aib^1,3,Gln^10,Har^11,Ala^12,Trp^14,Arg^19,Tyr^34]hPTH(1-34)] the “cAMP EC50” value [16] was 1.9 nM.
